Columns and labels:
ISG15 (Mus musculus) = ISG15 (Mus musculus) (UniProt Q64339); assay: microscale thermophoresis; conditions: cited from earlier work
[1] = biological target: murine USP18^IBB-1-USP7, His6-tagged (mouse) (UniProt Q9WTV6)

Sequence of ISG15 (Mus musculus) (Q64339 1-155): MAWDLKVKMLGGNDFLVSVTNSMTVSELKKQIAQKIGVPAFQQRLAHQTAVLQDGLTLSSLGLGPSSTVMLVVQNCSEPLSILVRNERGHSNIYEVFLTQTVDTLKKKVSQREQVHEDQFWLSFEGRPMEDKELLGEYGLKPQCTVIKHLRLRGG

| Substance | Kd (ISG15 (Mus musculus)) | catalytic activity towards ISG15-FP, percent of wild type (% of wt activity) [1] |
| --- | --- | --- |
| USP18 (from UniProt Q9WTV6) | 1.3 µM |  |
| mouse ISG15 (residues 1-155, C76S) (from UniProt Q64339 1-155) (natural protein) |  | 0.5 |
